Results taken from US8241627B2, “Modified polypeptides stabilized in a desired conformation and methods for producing same” (The Center for Blood Research, Inc., priority 2000, dated 2012).
Substitutions are numbered along the chain they refer to. Names and notes keep the numbering of the source.

B1: E284C/E301C: high affinity open αL I-domain mutant, E284 and E301 replaced by cysteines (protein)
chain: GNVDLVFLFDGSMSLQPDEFQKILDFMKDVMKKLSNTSYQFAAVQFSTSYKTEFDFSDYVKRKDPDALLKHVKHMLLLTNTFGAINYVATEVFREELGARPDATKVLIIITDGEATDSGNIDAAKDIIRYIIGIGKHFQTKESQETLHKFASKPASCFVKILDTFEKLKDLFTCLQKKIY
B2: L161C/F299C: intermediate-affinity open αL I-domain mutant, cysteines for L161 and F299 (protein)
chain: B1 chain with L34C, C157E, F172C, C174E
B3: K160C/F299C: intermediate-affinity open αL I-domain mutant, cysteines for K160 and F299 (protein)
chain: B1 chain with K33C, C157E, F172C, C174E
B4: L161C/T300C: intermediate-affinity open αL I-domain mutant, cysteines for L161 and T300 (protein)
chain: B1 chain with L34C, C157E, T173C, C174E
B5: K287C: single cysteine substitution mutant of LFA-1 αL (protein, UniProt P20701 26-1170, looked up, variant K287C)
Integrin alpha-L: YNLDVRGARSFSPPRAGRHFGYRVLQVGNGVIVGAPGEGNSTGSLYQCQSGTGHCLPVTLRGSNYTSKYLGMTLATDPTDGSILACDPGLSRTCDQNTYLSGLCYLFRQNLQGPMLQGRPGFQECIKGNVDLVFLFDGSMSLQPDEFQKILDFMKDVMKKLSNTSYQFAAVQFSTSYKTEFDFSDYVKRKDPDALLKHVKHMLLLTNTFGAINYVATEVFREELGARPDATKVLIIITDGEATDSGNIDAAKDIIRYIIGIGKHFQTKESQETLHKFASKPASEFVCILDTFEKLKDLFTELQKKIYVIEGTSKQDLTSFNMELSSSGISADLSRGHAVVGAVGAKDWAGGFLDLKADLQDDTFIGNEPLTPEVRAGYLGYTVTWLPSRQKTSLLASGAPRYQHMGRVLLFQEPQGGGHWSQVQTIHGTQIGSYFGGELCGVDVDQDGETELLLIGAPLFYGEQRGGRVFIYQRRQLGFEEVSELQGDPGYPLGRFGEAITALTDINGDGLVDVAVGAPLEEQGAVYIFNGRHGGLSPQPSQRIEGTQVLSGIQWFGRSIHGVKDLEGDGLADVAVGAESQMIVLSSRPVVDMVTLMSFSPAEIPVHEVECSYSTSNKMKEGVNITICFQIKSLIPQFQGRLVANLTYTLQLDGHRTRRRGLFPGGRHELRRNIAVTTSMSCTDFSFHFPVCVQDLISPINVSLNFSLWEEEGTPRDQRAQGKDIPPILRPSLHSETWEIPFEKNCGEDKKCEANLRVSFSPARSRALRLTAFASLSVELSLSNLEEDAYWVQLDLHFPPGLSFRKVEMLKPHSQIPVSCEELPEESRLLSRALSCNVSSPIFKAGHSVALQMMFNTLVNSSWGDSVELHANVTCNNEDSDLLEDNSATTIIPILYPINILIQDQEDSTLYVSFTPKGPKIHQVKHMYQVRIQPSIHDHNIPTLEAVVGVPQPPSEGPITHQWSVQMEPPVPCHYEDLERLPDAAEPCLPGALFRCPVVFRQEILVQVIGTLELVGEIEASSMFSLCSSLSISFNSSKHFHLYGSNASLAQVVMKVDVVYEKQMLYLYVLSGIGGLLLLLLIFIVLYKVGFFKRNLKEKMEAGRGVPNGIPAEDSEQLASGQEAGDPGCLKPLHEKDSESGGGKD

Columns and labels:
ICAM-1 [1] = molecular target: T1, ICAM-1 (Homo sapiens, UniProt P05362); test: BIAcore binding of soluble αL I-domains to ICAM-1; conditions: for Kon, interaction of αL I-domains with ICAM-1: calculated by Koff/KD; for Koff, interaction of αL I-domains with ICAM-1: curve fitting of dissociation phase, 1:1 binding model
Protocol: Briefly, recombinant mutant αL I-domain stabilized in the open conformation (K287C/K294C), or recombinant wild-type αL I-domain from amino acid residue G128 to Y307, were cloned into pET11b (Novagen) and expressed in E. coli induced with 1 mM IPTG for 4 hours. The recombinant proteins were purified from inclusion bodies by solubilization of inclusion bodies in 6M guanidine HCl and were refolded by dilution in the presence of 0.1 mM Cu^2+/phenanthrolin to enhance formation of disulfide bonds. Protein was concentrated by ammonium sulfate precipitation, dialyzed, and purified over a monoQ ion-exchange column. […] The recombinant proteins were then purified by gel filtration and concentrated by Centriprep. For BIAcore™ analysis, recombinant ICAM-1, ICAM-2 and ICAM-3 Fc chimeras were immobilized on the BIAcore™ sensor chip by an amine-coupling method. Recombinant αL I-domains were flowed in, and BIAcore™ assays were performed with Tris-buffered saline supplemented with 1 mM MgCl2 or 2 mM EDTA, at a flow rate of 10 μl/minute at 25° C.
Target sequence in this assay (P05362 28-480 limits assumed): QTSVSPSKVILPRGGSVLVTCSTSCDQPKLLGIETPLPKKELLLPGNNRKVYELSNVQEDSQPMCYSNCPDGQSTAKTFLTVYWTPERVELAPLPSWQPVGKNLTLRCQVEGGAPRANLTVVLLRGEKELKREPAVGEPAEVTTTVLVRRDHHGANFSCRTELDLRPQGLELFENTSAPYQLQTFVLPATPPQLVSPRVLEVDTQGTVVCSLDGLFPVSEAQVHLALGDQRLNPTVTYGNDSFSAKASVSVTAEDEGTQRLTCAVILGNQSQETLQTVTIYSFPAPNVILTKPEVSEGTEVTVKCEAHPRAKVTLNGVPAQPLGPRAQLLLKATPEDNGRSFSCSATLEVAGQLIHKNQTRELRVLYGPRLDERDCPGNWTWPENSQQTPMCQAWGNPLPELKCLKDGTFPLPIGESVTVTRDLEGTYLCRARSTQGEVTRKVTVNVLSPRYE

ICAM-1 [2] = molecular target: T1, ICAM-1; test: Binding of LFA-1 or isolated I-domain transfectants to immobilized ICAM-1; format: cell-based; parameters: ICAM-1 was purified from human tonsil; from tissue; host or cells: human tonsil; conditions: 293T
Protocol: Clones of the transfectants that expressed similar levels of cell surface LFA-1, as determined by flow cytometry using monoclonal antibody TS2/4 (FIG. 3B), were tested for their ability to bind to immobilized ICAM-1, as previously described (Lu, C and Springer, T A (1997) J Immunol 159:268-278).
Briefly, ICAM-1 was purified from human tonsil, and coated to 96-well plates as described previously (Lu, C and Springer T A, (1997) J Immunol 159:268-278). Cells were labeled with a florescence dye 2′,7′-bis-(carboxyethyl)-5(and-6)-carboxyfluorescein, acetoxymethyl ester (BCECF-AM), and resuspended to 1×10^6/ml in L15/FBS. 50 μl cell suspension was mixed in ICAM-1 coated wells with an equal volume of L15/FBS in the absence or presence of monoclonal antibody (CBRLFA-1/2, 10 μg/ml). Monoclonal antibodies were used at final concentration of 1:20 hybridoma supernatant, 1:200 ascites, or μg/ml purified IgG. For testing the effect of divalent cations, BCECF-AM-labeled cells were washed 2× with TS buffer, pH7.5 (20 mM Tris, pH 7.5, 150 mMNaCl) containing 5 mM EDTA, followed by 2 washes with TS buffer, pH7.5. Cells were then resuspended to 5×10^5/ml in the TS buffer, pH7.5 supplemented with 1 mM MgCl2/CaCl2, MgCl2, MnCl2 mM EDTA, and 100 μl cell suspension was added to ICAM-1 coated wells. After incubation at 37° C. for 30 minutes, unbound cells were washed off on a Microplate Autowasher (Bio-Tek Instruments, Winooski, Vt.). The fluorescence content of total input cells and the bound cells in each well was quantitated on a Fluorescent Concentration Analyzer (IDEXX, Westbrook, Me.). The bound cells were expressed as a percentage of total input cells per sample well.
For generating stable K562 transfectants that express the I-domain on the surface, 20 μg of SspI-linearized pcDNA3.1/Hygro(+) containing the sequences encoding the I domain and the PDGFR transmembrane domain was used to transfect K562 cells by electroporation as described above. Transfectants were selected for resistance to 100 μg/ml hygromycin B, and were further subcloned by cell sorting and limiting dilution; clones that expressed similar levels of surface wild-type and mutant I domain-PDGFR were selected for functional studies. Stable cell lines were maintained in RPMI medium 1640 supplemented with 10% FBS and 100 μg/ml hygromycin B. Cell surface expression of the isolated I-domains was determined by flow cytometry using antibody TS1/22 to the I-domain (FIG. 7). Two clones from each transfectant were selected and tested for binding to immobilized ICAM-1, and similar results were obtained with each of the two clones (FIG. 8A).
If the constitutive ligand binding activity of mutant K287C/K294C is due to the formation of a disulfide bond between the introduced C287 and C294, disruption of the disulfide bond with a reducing agent would abolish ligand binding ability of the mutant. Accordingly, the transfectants were treated with the reducing agent DTT (10 mM) in L15/FBS containing Mg^2+ and Ca^2+, and the ability of transfectants to bind to ICAM-1 was assessed.
Furthermore, the effect of divalent cations on ligand binding of the isolated I-domains expressed on the surface of K562 transfectants was tested. The binding reactions were performed in HEPES/NaCl/glucose (20 mM HEPES, pH 7.5, 140 mM NaCl, 2 mg/ml glucose) supplemented with 1 mM […], 1 mM Mg^2+, or 1 mM EDTA.
Target sequence in this assay (P05362 28-532): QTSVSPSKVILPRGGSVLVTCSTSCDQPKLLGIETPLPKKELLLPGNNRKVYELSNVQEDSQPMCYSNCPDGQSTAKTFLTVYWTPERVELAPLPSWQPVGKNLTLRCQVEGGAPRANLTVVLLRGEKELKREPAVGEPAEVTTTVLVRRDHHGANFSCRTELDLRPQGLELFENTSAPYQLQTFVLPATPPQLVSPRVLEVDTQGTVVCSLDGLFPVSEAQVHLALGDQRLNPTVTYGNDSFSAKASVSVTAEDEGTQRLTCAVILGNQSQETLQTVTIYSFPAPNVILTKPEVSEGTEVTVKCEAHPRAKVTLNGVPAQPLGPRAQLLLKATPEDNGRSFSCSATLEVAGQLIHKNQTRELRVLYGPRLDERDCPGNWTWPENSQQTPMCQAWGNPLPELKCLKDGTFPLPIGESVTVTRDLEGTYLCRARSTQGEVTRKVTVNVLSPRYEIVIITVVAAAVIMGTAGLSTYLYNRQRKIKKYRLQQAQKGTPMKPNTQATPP

Row | Molecule | affinity compared with high-affinity open αL I-domain K287C/K294C (times lower) (ICAM-1 [1]; ICAM-1, soluble I-domains) | Kon, interaction of αL I-domains with ICAM-1 (ICAM-1 [1]) | Koff, interaction of αL I-domains with ICAM-1 (ICAM-1 [1]) | binding of 293T transient transfectants to immobilized ICAM-1 with activating mAb CBRLFA-1/2 (ICAM-1 [2]; CBRLFA-1/2 10 μg/ml) | binding of 293T transient transfectants to immobilized ICAM-1 (ICAM-1 [2]; no activating antibody)
1 | B1 | nearly comparable | 128000 M⁻¹ s⁻¹ | 0.0459 s⁻¹ |  | 
2 | B2 |  | 136000 M⁻¹ s⁻¹ | 0.513 s⁻¹ |  | 
3 | B3 |  | 153000 M⁻¹ s⁻¹ | 0.67 s⁻¹ |  | 
4 | B4 |  | 135000 M⁻¹ s⁻¹ | 0.65 s⁻¹ |  | 
5 | B5 |  |  |  | increased | reduced binding
